The source of these data is FireProtDB (doi:10.1021/bi960052u).

For the series the following is noted: Equus caballus, pH 7, 10 °C, GdnHCl, Fluorescence, Sodium phosphate 0.1 M.

Chain of Cytochrome c L95A, P00004 (P00004 whole entry L95A): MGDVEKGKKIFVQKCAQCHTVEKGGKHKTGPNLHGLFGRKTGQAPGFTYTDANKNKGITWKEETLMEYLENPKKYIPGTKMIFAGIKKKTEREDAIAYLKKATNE
Chain of Cytochrome c L95I, P00004 (P00004 whole entry L95I): as the sequence (P00004 whole entry L95A) above, with A95I counted along it
Chain of Cytochrome c wild type, P00004 (P00004 whole entry): as the sequence (P00004 whole entry L95A) above, with A95L counted along it
Chain of Cytochrome c L95V, P00004 (P00004 whole entry L95V): as the sequence (P00004 whole entry L95A) above, with A95V counted along it

Take Cytochrome c L95A, P00004: for the setting “structure 1AKK”, the “ddG of mutation (higher = less stable)” value turned out to be 3.5 kcal/mol, the denaturant m value came out at 3.7 kcal/mol/M, the “denaturant midpoint (higher = more stable)” value (shortened to “denaturant midpoint”) amounted to 1.67 M and the unfolding free energy amounted to 6.2 kcal/mol.

Take Cytochrome c L95I, P00004: under “structure 1AKK”, the “ddG of mutation (higher = less stable)” value was -0.2 kcal/mol, the denaturant m value is 4 kcal/mol/M, the “denaturant midpoint” value amounted to 2.47 M and the unfolding free energy is 9.9 kcal/mol.

For Cytochrome c L95V, P00004, where the note is “structure 1AKK”, the “ddG of mutation (higher = less stable)” value worked out at 0.8 kcal/mol, the denaturant m value was determined as 3.6 kcal/mol/M, the “denaturant midpoint” value was 2.47 M and the unfolding free energy stood at 8.9 kcal/mol.

On to Cytochrome c wild type, P00004, for which the denaturant m value came out at 3.5 kcal/mol/M, the “denaturant midpoint” value was determined as 2.77 M and the unfolding free energy stood at 9.7 kcal/mol.
